In article PMC11211324 (2024):

Target: KRAS-LgBiT (UniProt P01116 1-189)
Assay: NanoBiT in 293T cells

Sequence of KRAS-LgBiT (P01116 whole entry): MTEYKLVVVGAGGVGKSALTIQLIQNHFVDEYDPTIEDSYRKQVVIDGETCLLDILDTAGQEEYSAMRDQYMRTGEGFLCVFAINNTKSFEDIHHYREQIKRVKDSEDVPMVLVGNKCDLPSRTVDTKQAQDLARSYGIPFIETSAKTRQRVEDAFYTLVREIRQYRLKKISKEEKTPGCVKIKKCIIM

B1: TKD (nanobody)-SmBiT (VHH)
VHH: DVQLQESGGGLVQAGGSLRLSCVASGRTFSTYPTGWFRQAPGKEREFVARINLSGGITNYADSVKGRFTISRDNAKNTVYLQMNSLKPEDTAVYYCGGGSTTWAGGIPTNFDYWGQGTQVTVSS
Kd: 0.0413 µM
